Laboratory results taken from IntAct's records for PubMed 18323775.

B1: Zinc finger protein-like 1 (Mus musculus), Q9DB43 (parent)
chain: MGLCKCPKRKVTNLFCFEHRVNVCEHCLVANHAKCIVQSYLQWLQDSDYNPNCRLCNTPLASRETTRLVCYDLFHWACINERAAQLPRNTAPAGYQCPSCNGPIFPPANLAGPVASALREKLATVNWARAGLGLPLIDEVISPEPEPLNSSDFSDWSSFNATTTSVQEERASTPSAPAFYSQAPRPPPSPSRPEQHTVIHMGSTEALAHAPRKVYDTRDDDRTAGIHGDCDDDKYRRRPALGWLAQLLRSRAGSRKRPLTLLQRAGLLLLLGLLGFLALLALMSRLGRAAADSDPNLDPLMNPHIRVGPS
partner: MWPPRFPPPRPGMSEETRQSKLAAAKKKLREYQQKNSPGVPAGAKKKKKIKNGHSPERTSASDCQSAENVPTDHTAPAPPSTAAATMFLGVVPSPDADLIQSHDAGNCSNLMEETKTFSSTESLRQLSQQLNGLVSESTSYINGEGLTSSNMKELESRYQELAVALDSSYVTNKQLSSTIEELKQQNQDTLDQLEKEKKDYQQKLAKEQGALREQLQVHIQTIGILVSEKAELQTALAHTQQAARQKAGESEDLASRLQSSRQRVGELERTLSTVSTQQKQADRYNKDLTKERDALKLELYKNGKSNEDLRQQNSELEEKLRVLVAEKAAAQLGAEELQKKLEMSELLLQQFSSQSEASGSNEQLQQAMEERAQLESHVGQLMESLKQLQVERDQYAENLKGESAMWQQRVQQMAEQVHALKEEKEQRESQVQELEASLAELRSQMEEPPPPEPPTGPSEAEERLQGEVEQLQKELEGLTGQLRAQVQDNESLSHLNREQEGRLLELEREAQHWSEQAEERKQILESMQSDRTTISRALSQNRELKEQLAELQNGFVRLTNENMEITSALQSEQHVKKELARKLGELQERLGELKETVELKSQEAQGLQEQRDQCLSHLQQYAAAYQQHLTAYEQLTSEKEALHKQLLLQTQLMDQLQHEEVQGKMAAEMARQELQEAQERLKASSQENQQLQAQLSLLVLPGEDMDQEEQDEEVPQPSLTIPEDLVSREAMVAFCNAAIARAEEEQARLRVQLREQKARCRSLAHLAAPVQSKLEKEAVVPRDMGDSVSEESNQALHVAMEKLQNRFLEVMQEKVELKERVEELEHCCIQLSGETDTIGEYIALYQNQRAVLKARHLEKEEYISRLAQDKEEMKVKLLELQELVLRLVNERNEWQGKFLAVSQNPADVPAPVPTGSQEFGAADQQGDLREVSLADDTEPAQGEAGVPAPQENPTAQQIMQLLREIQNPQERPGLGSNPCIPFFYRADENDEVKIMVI

Variants of: B1
Conditions: with goga2_rat Golga2, Q62839

| effect of a mutation on the interaction | Variant |
| --- | --- |
| decreasing interaction | MGLCKCPKRKVTNLFCFEHRVNVCEHALVANHAKCIVQSYLQWLQDSDYNPNCRLCNTPLASRETTRLVCYDLFHWACINERAAQLPRNTAPAGYQCPSCNGPIFPPANLAGPVASALREKLATVNWARAGLGLPLIDEVISPEPEPLNSSDFSDWSSFNATTTSVQEERASTPSAPAFYSQAPRPPPSPSRPEQHTVIHMGSTEALAHAPRKVYDTRDDDRTAGIHGDCDDDKYRRRPALGWLAQLLRSRAGSRKRPLTLLQRAGLLLLLGLLGFLALLALMSRLGRAAADSDPNLDPLMNPHIRVGPS [C27A] |

Variants of: B1
Conditions: with goga2_rat Golga2, Q62839
Remark: another data set of the same source

| effect of a mutation on the interaction | Variant |
| --- | --- |
| disrupting interaction | MGLCKCPKRKVTNLFCFEHRVNVCEHALVANHAKCIVQSYLQWLQDSDYNPNCRLCNTPLASRETTRLVCYDLFHWACINERAAQLPRNTAPAGYQCPSCNGPIFPPANLAGPVASALREKLATVNWARAGLGLPLIDEVISPEPEPLNSSDFSDWSSFNATTTSVQEERASTPSAPAFYSQAPRPPPSPSRPEQHTVIHMGSTEALAHAPRKVYDTRDDDRTAGIHGDCDDDKYRRRPALGWLAQLLRSRAGSRKRPLTLLQRAGLLLLLGLLGFLALLALMSRLGRAAADSDPNLDPLMNPHIRVGPS [C27A] |

Variants of: B1
Conditions: with goga2_rat Golga2, Q62839
Remark: another data set of the same source

| effect of a mutation on the interaction | Variant |
| --- | --- |
| disrupting interaction | MGLCKAPKRKVTNLFCFEHRVNVCEHCLVANHAKCIVQSYLQWLQDSDYNPNCRLCNTPLASRETTRLVCYDLFHWACINERAAQLPRNTAPAGYQCPSCNGPIFPPANLAGPVASALREKLATVNWARAGLGLPLIDEVISPEPEPLNSSDFSDWSSFNATTTSVQEERASTPSAPAFYSQAPRPPPSPSRPEQHTVIHMGSTEALAHAPRKVYDTRDDDRTAGIHGDCDDDKYRRRPALGWLAQLLRSRAGSRKRPLTLLQRAGLLLLLGLLGFLALLALMSRLGRAAADSDPNLDPLMNPHIRVGPS [C6A] |

Variants of: B1
Conditions: with goga2_rat Golga2, Q62839
Remark: another data set of the same source

| effect of a mutation on the interaction | Variant |
| --- | --- |
| decreasing interaction | MGLCKCPKRKVTNLFCFEHRVNVCEHCLVANHAKCIVQSYLQWLQDSDYNPNARLCNTPLASRETTRLVCYDLFHWACINERAAQLPRNTAPAGYQCPSCNGPIFPPANLAGPVASALREKLATVNWARAGLGLPLIDEVISPEPEPLNSSDFSDWSSFNATTTSVQEERASTPSAPAFYSQAPRPPPSPSRPEQHTVIHMGSTEALAHAPRKVYDTRDDDRTAGIHGDCDDDKYRRRPALGWLAQLLRSRAGSRKRPLTLLQRAGLLLLLGLLGFLALLALMSRLGRAAADSDPNLDPLMNPHIRVGPS [C53A] |
